The values that follow come from a protein production outcome set (Wang et al. 2014).

The nature of the data set: label from the status in PepcDB records.
On to “MRVNILMSTYNGEKFVADQIESIQKQTYTDWNLIIRDDGSSDRTCEIVDDFVSKDNRIKLIRAENVGVIKSFHELVTDSNNADFYFFADQDDYWLPEKLSVMLEETKKHDNSKPVMYYTDLKVTDRNLNVTSESMIRGQSDHANTKLVQELTENTVTGGASMINHELAQLWQSTNDIIMHDWYLAIVAAALGELVYIDQPTHLYRQHDSNVLGARTLSKRIKKWIHPNLWFEKYWWLITASQKQAQKLLTENLSLMSEDDKALVSDYVNILKQPKAERRQILDRYNLRKNKNYHTSIFRTLIITKFAYKGKKTNEFLQP”, for which the protein production result is listed as “failed”.

For “MTSAQKPVFSPSDLQTWLEIATEAVLAAGAEIFSLWGKVQQIQEKGRAGDLVTEADRQAEAIILEIIKRRCPDHAILAEESGQLGQVDNPFCWAIDPLDGTTNFAHSYPVSCVSIGLLIQDIPTVGVVYNPFRQELFRAATSLGATLNRRPIQVSTTASLDKSLLVTGFAYDRVKTLDNNYPEFCYLTHLTQGVRRSGSAAIDLIDVACGRLDGYWERGINPWDMAAGIVIVREAGGIVSAYDCSPLDLSTGRILATNGKIHQELSQALAATPQWFQQYAAARAQKI”, the protein production result is “failed”. Consider “RPFMQKRAQKALPHVSTGADALVGRKVLVTETIDPTTDKGRVAVDGDVWTARSLTGEVIEKGMRVEIVSYESIVLNVVVLGNDKQ”, for which the protein production entry is “not failed”. Consider “MQQSEHFSFGEQTEIEDIGGGLKRQMLGFNHELMAVKIWFDKGAEGYVHAHRHSQVSYVVEGEFHVNVDGVIKVLTAGDSFFVPPHVDHGAVCPTGGILIDTFSPAREDFVEGLS”, for which the protein production entry is recorded as “not failed”. The result for “MDFLVAHFNLLRGLHILAVIAFMAGMLYLPRLFVYHTKATPGSQMDETFKVMERRLLRGIINPASIATAVFGLGLILADAQIRGWDFLLQPWMIAKLVALVGLYGFHGFLSASRKKFERGENVRSEKFWRMVNEIPFVLAIVIVMSVTTKYLNH” reads “failed”; that for “MGTPVVWEGNIGNPPEHKSFPNGNNEPRQLLRLNVMFDNSIPDGSGGYKDRGGFWANVEWWHPDAERFAQLFSKGMRVVVTGRAIMDTWKDKETGDDVWALKVEANRVAILPHRVNQVTMTQSNNTGQRQNAQQNNRPERQQNSAQQPGQHTDDLSHYGNGFDDDIPVLEHHHHHH”, “not failed”.

Take “MIGVVATLKVQPAKAAEFEKVFLDLAAKVKANEPGCLVYQLTRSKTEEGVYKVLELYASMDALKHHGGTDYFKAAGAAMGPTMAGAPVIEYLDAVE”: the protein production result was “not failed”.

Regarding “MALMQELYSTPASRLDSFVAQWLQPHREWKEEVLDAVRTVEEFLRQEHFQGKRGLDQDVRVLKVVKVGSFGNGTVLRSTREVELVAFLSCFHSFQEAAKHHKDVLRLIWKTMWQSQDLLDLGLEDLRMEQRVPDALVFTIQTRGTAEPITVTIVPAYRALGPSLPNSQPPPEVYVSLIKACGGPGNFCPSFSELQRNFVKHRPTKLKSLLRLVKHWYQQYVKARSPRANLPPLYALELLTIYAWEMGTEEDENFMLDEGFTTVMDLLLEYEVICIYWTKYYTLHNAIIEDCVRKQLKKERPIILDPADPTLNVAEGYRWDIVAQRASQCLKQDCCYDNRENPISSWNVKRARDIHLTVEQRGYPDFNLIVNPYEPIRKVKEKIRRTRGYSGLQRLSFQVPGSERQLLSSRCSLAKYGIFSHTHIYLLETIPSEIQVFVKNPDGGSYAYAINPNSFILGLKQQIEDQQGLPKKQQQLEFQGQVLQDWLGLGIYGIQDSDTLILSKKKGEALFPAS”, the protein production entry is listed as “failed”.

As for “MEFILEPWHWFVLGILLMLSELVITAFAALWFGIAAIMVSVLLWLFPMMGITTQVIMWIILSVLCTLLWFKFIKPLSIDKTKAGLSREATIGQIGMVIRVGLSHEQIVVRFALPVLGADEWNCRSLAPVEVGDRVCVVDIMGNDLVVQPHIPINNK”, the protein production entry is “failed”.

As to “MAVPPVEMYSGSFWNRMRKPLPLRTQVIRFTVVFVIVSFILAVALQITHERMPDPKVTKPLPDLGFELLTKVPGMYVLADCCIGFLNILSVFTAFKLYLLHRHCVGSGEPELPCNIPGVSRFFLSVWLCKENCRIELRNIHTIAWIRFITSYALLLLFRSAVIVMTSLPAPDDLCQDPPKIENPVKNVILTVLTAGGGSIHCGDLMYSGHTVILTLHLMFHWIYGAMVHWSFRPVVTVVAIFGYYCIVASRFHYTDDVLVAIYLTIATFIAVGHNADGAPWQLQLFIRWWPCCGANSREVTEDSQPVMVAFKSEELDEMNGVLEGRQKKHGGVGDGESLMFKCGAYVVSHHHHHH”, the protein production result is “not failed”. Consider “MQKDKILKKIIVLCFFIFYNFNFFGLAVPSLSGPVVDKAGILSRSEFEKIENFLLDLDQKSKVQIAVLIIPSLEGESIEDYSMQVAEEWKLGDKEKDSGALLVVAVKDKKLRIEVGYGLEENLTDSRSGQIIRNFIAPQFRSGNYGEGIYDGIKAMAAYASEDESLLKEIAVSDEDDEGGFPQALLFFLFVYLMISKFSPGGLFWIFYLLSRSGRAGRSFNGRSSSRGSFFGGSIGRSSGRGFSGGGFSGGGGSFGGGGASGGW”, for which the protein production entry is “failed”. “MKHLVTTALAYTNGPLHLGHARSTYIPADIYTRYLRLKGEEVIHVGGTDNHGVPITLTAEREGVKPIDIVDRYHNAIKADLDSLNVSFDTFGRTHSDIHIETAQEFYSKLKENGYIYEKEIEQFYCEKCDMYLADRYVEGICPFCEGEARGDHCEVCGRHLEPTELVNPYCIHCNSKPEIKRTTHYFFKLSAMQDVLKEYIENSPEMPEHVKNMALRWIEELHDWDVSRNIKWGVPIPGCDDQVMYVWIEAPIGYVSFTKQLGDLWKDYWLENTGDSKISHFIGKDITVHHAVFWPGILKGIGGYKMPNAVVSGGYLTLENKKMSTSKNWVVWVKDFIENFSSDYLRYFFMINAPLNRDTDFSWDDFQKRINTELIDIIGNFTHRTLVFTERKFGSTPVVDLNQLKDEDKKLISKCEDTLNRVDSLIREYNFKDALMEIIHLAKEGNGYFQGMAPWAIKDEERLKEVMYTCSVALKYIVYLLSSFMPEKTALLLEYMNEELDLEVRGNPLKKPKVIFTKVSDEDISRMKENLMKATKKAETKSDEKSKKVKSGEKMDIIDIDYFGNIDLRVGQILEVEEVPRSKKLYKITADLGDEKRQIVSGLKGAYEAEELVGKKVIIICNLKPAKLCGVESQGMLLAAEDDSIVSLLALDRDLPVGSKIH”: the protein production result is “failed”. On to “MFFKEIHHVAINASNYQATKNFYVEKLGFEVLRENHRPEKNDIKLDLKLGSQELEIFISDQFPARPSYPEALGLRHLAFKVEHIEEVIAFLNEQGIETEPLRVDDFTGKKMTFFFDPDGLPLELHE”, for which the protein production entry is given as “not failed”. The same measure for “DDNERLSKVEKARQLREQVNDLFSRKFGEAIGMGFPVKVPYRKITINPGCVVVDGMPPGVSFKAPSYLEISSMRRILDSAEFIKFTVIRPFPGLVINNQLV”: “not failed”; for “LEPRKKAEEALRKSEERFAKAFRMAPVPSLVLYGDDLQALDINQAFSETFGYQAEELLGESTVACGLWQDGGAERLGELLAQSGSVRNVQLRLQHKDRNGLDCLVSAEAVSLNEQDCVLVALLDIS”: “not failed”; for “MLKNFNGRPSLATVLKASTVAGIAAAVLATGVPLEITRSYAEAVKVQAPAVPSFANVVDAVSPAVVSVRVENRVNPVSDNNNDGFSFDFNGRGFDDLPDDHPLKRFFKQFGQDPNDQQGHSRRFGQNGPNGGPNGPGGKGRLRPVAQGSGFFISEDGYIVTNNHVVSDGQAFVAVMNDGTELDAKLIGKDPRTDLAVLKVDGKGKKFTYVNWADDNNVRVGDWVVAVGNPFGLGGTVTAGIVSARGRDIGSGPYDDYLQVDAAVNRGNSGGPTFNLSGEVVGINTAIFSPSGGSVGIAFAIPASTARDVVADLMKDGQVSRGWLGVQIQPVTKDIAESIGLSEPSGALVVAPQAGSPGDKAGMKAGDVVTALNGETIKDARDLSRRIGAMQPGSKVELSVWRAGKAQPLTVELGTLPIDQKDASADDNSQPQQPEAPASEKALADLGLTVGPSDDGKGLAITGIDPDSDAADKGIKEGEKITSVNNQEVASPEDVVKVLNQAKKDGRTRALFQIQSNEGSRFVALPINGQG”: “failed”. “RTEVVAVALDTSLEELKGRFVESGISKIIVYDGNIDNVVGYIHSSEMFRSPKDWRNHVKEVPIVPETMAAHKLMKLFMQQKKTIAVVVDEFGGTSGIVSLEDLVEEIFGDIEDEHDNTSYICKQIGE”: the protein production entry is listed as “not failed”. The result for “MRTAVIIPFYQREAGILSRALDSVDGQILPEGHSLTVFVIDDESPVSARSEVEGRQGKVPVRLIAQKNGGPGAARNAGLDAVAAEGFDHVAFLDSDDIWQPTHLADALDLLARGYDFHFCDHQRTDDDITYFERTPALRRMREERHAGVTVLDAEAPILAFDQPSIMAASVDTYLSQTSTVVVRQSFVETLRFDPRLRNAGEDQLFWLSLIAAGARTVVSWKMNVLCGRGVNVYFDAFDWKSTKVVDRTGYMLMFFHTVGRRLSLTASDRRTVADRIRRYRRAYSYLFLRALLQGRVPTLSLTWKLAALDPGLVPAMPLRFLAVLPNREAESLQWLEHHHHHH” reads “failed”; that for “MAVLGQLGFMIAFLSGGVAAGHFGLLTERRTDILTTLVFTVALPALIFRSTYDRPLQEIISPALLGGFWVIIALTITLGWLVHRRLESADRRSVSVVQSYHSNMGFLGLPLVAATMGSEATAVASVILGIGAVTHVPVTVFLLVRINGSDASLLSECRKLVTNPVLIALAAGITASVLSLSVPESLISALGPPAELALPVALLCIGATLDTDLPVSDLQKTVSVVGLKVLWMPALAWLVYSSLSMDTTALGAAVVMLGTPTAVSTYVYTTELGGDAAFASLNVFTSTVVSIGTLSLLVWLFT”, “failed”. In the case of “MAQQQGMDSALFERRLRPVYDNLEVGNNRKALQESEKLLRKHPNLLCARALKGLSLLRLGRYDESHGCLQTVAEEKPTDDSTLQVLSFCYREMEQLDKIVELYQHAVKQNPGNEELLAHLFISHVRVEDYKAQQAVALQLYKAQPKNAYYFWSVISVVFQGIRGPESALPEKRKIYLGLAQRMVDKHIKEGKMETEQEAFLYLHILKLQNKYQEAWEFLTGELCAKLYPGAPVSMKFELLKELGNWRELNELLQQLLDADRDRWDFYKEYIQSSFELLKLTPQGVENGDKDSLARCQEFLQRIIDSSERKKRGPYLARLELHQRMRAEQLPAEKLIGDFDEMVIEYFRLFGDKSCCTHDIALFLPSISMNQRQALASKLLLESGVTSTSLPKNKEQLQKHLCALQISRMCGSHMDLPADHLLAFYTALKLHYEHGRTTFGKKLLATEMGPSDAYALLAANVMYDLSRRENKSDHLFEALCLLQYVLRNSTSNFHVKLLSLKIYHLFGCQVGAQEMYEYLDIKQIQLDSMGYVHCQLLALGGRFSGNRNVYDATLKFFTNSYKERLEYIALTYRFCTFSKMEEFMNFKERLTNSLQYVACSVEAQICDLVSCYGNITQNLSAYVAMSIEPAEDRIAWHELSDNRDLGAIIRWDPLHEVDAAEERRESFDQEVEVLQVRSLMLRLFASFIDLYHGAGLKDSPAGAETATLELLRESWTGLFQRLRVMNYKPLAQKFLVNLLPTRLHLLLDMPYERFFDDLAQLVLDLQSGSAKLAEQCKRVGDNVIATMELCVQTINESNESNGIDGLWKRRGQQQKVAASLEMLSLYAFLLSVLNDKLQVSSKTKTKKKPVENKVDGPQPISEKERSQMLQELMRQLKHKFEACDTAIRSWKAPVLPRDLSSFMSDMSLKPEVEATLIGDVSATFKDSHELMVTELRNLLKDKIRMVAK”, the protein production entry was “failed”. As for “MGHHHHHHSHMALKDYALEKEKVKKFLQEFYQDDELGKKQFKYGNQLVRLAHREQVALYVDLDDVAEDDPELVDSICENARRYAKLFADAVQELLPQYKEREVVNKDVLDVYIEHRLMMEQRSRDPGMV”, the protein production entry is on record as “not failed”.
